The experiment deals with Aβ1-40 peptide (natural β-amyloid peptide, β-AP1-40). The experiment is described as follows: cell-based or functional assay.

Bounds are passed on as bounds.

Chain of Aβ1-40 peptide (natural β-amyloid peptide, β-AP1-40) (peptide, as listed by the source limits assumed, form in doubt): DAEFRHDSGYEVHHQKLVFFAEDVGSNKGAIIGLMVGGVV

For the substance “PPI 969: TFA·N-ethyl-(Gaffvl)-NH2 (peptide)”, the Nucleation assay Δlag, 1.25 µM compound (fold of control lag time) was determined as 3; the Nucleation assay Δlag, 2.5 µM compound (fold of control lag time) is more than 5; the Nucleation assay Δlag, 5 µM compound (fold of control lag time) was more than 5.
“PPI 992: TFA·H-(lvffa)-isopropylamide (peptide)” displayed a Nucleation assay Δlag, 1.25 µM compound (fold of control lag time) of 1; a Nucleation assay Δlag, 2.5 µM compound (fold of control lag time) of 1; a Nucleation assay Δlag, 5 µM compound (fold of control lag time) of 3.
Substance “PPI 1007: TFA·N,N-dimethyl-(lvffl)-NH2 (peptide)” came in with a Nucleation assay Δlag, 0.3 µM compound (note *) (fold of control lag time) of 3; a Nucleation assay Δlag, 0.6 µM compound (note #) (fold of control lag time) of 1.5; a Nucleation assay Δlag, 1 µM compound (note *) (fold of control lag time) of 4; a Nucleation assay Δlag, 1.25 µM compound (note #) (fold of control lag time) of 1.5. The Nucleation assay Δlag, 2.5 µM compound (note #) (fold of control lag time) turned out to be 1.5 and the Nucleation assay Δlag, 3 µM compound (note *) (fold of control lag time) is 4.
PPI 1013: TFA·H-(Glvffl)-NH2 (peptide) returned a Nucleation assay Δlag, 0.6 µM compound (note #) (fold of control lag time) of 2; a Nucleation assay Δlag, 1.25 µM compound (note #) (fold of control lag time) of more than 3; a Nucleation assay Δlag, 2.5 µM compound (note #) (fold of control lag time) of 2.
“PPI 1125: 2 TFA·H-lvf-NH-NH-fvl-H (peptide)”: the Nucleation assay data (Δlag), 0.6 µM compound (note *) (fold of control lag time) is 2; the Nucleation assay data (Δlag), 1.25 µM compound (note *) (fold of control lag time) was more than 2.5; the Nucleation assay data (Δlag), 2.5 µM compound (note *) (fold of control lag time) was more than 2.5.
Substance “PPI 1320: TFA·H-(lf-[F5]f-vl)-NH2 (peptide)” had a Nucleation assay data (Δlag), 0.3 µM compound (fold of control lag time) of 1; a Nucleation assay data (Δlag), 1 µM compound (fold of control lag time) of 3; a Nucleation assay data (Δlag), 3 µM compound (fold of control lag time) of more than 5.
In turn, “PPI-1019: TFA•N-methyl-(lvffl)-NH2 (peptide)” showed a Nucleation assay data (Δlag), 0.6 µM compound (note *) (fold of control lag time) of 2; a Nucleation assay data (Δlag), 1.25 µM compound (note *) (fold of control lag time) of more than 2.5; a Nucleation assay data (Δlag), 2.5 µM compound (note *) (fold of control lag time) of more than 2.5.
In turn, “PPI-1318: TFA·H-(lf-D-Cha-vl)-NH2 (peptide)” had a Nucleation assay data (Δlag), 0.3 µM compound (fold of control lag time) of 1; a Nucleation assay data (Δlag), 1 µM compound (fold of control lag time) of 2; a Nucleation assay data (Δlag), 3 µM compound (fold of control lag time) of more than 5.
